How the values were obtained:
T2Q A34F variant of GB1 [1] = assay: NMR titration; 19F NMR of 3-fluorotyrosine-labelled A34F, serial dilution 500 to 15.6 uM; dimer to monomers; 20 mM phosphate pH 7.0, 10% D2O, 298 K; with ficoll (70 kDa) as crowder
T2Q A34F variant of GB1 [2] = assay: NMR titration; 19F NMR of 3-fluorotyrosine-labelled A34F, serial dilution 500 to 15.6 uM; dimer to monomers; 20 mM phosphate pH 7.0, 10% D2O, 298 K; with 100 g/L heparin (15 kDa) as crowder
T2Q A34F variant of GB1 [3] = assay: NMR titration; 19F NMR of 3-fluorotyrosine-labelled A34F, serial dilution 500 to 15.6 uM; dimer to monomers; 20 mM phosphate pH 7.0, 10% D2O, 298 K; with hyaluronic acid (50 kDa) as crowder
T2Q A34F variant of GB1 [4] = assay: NMR titration; 19F NMR of 3-fluorotyrosine-labelled A34F, serial dilution 500 to 15.6 uM; dimer to monomers; 20 mM phosphate pH 7.0, 10% D2O, 298 K; with 100 g/L mucin (porcine stomach) as crowder
T2Q A34F variant of GB1 [5] = assay: NMR titration; 19F NMR of 3-fluorotyrosine-labelled A34F, serial dilution 500 to 15.6 uM, Y33 monomer and dimer peak integrals; dimer to monomers; 20 mM phosphate pH 7.0, 10% D2O, 298 K; buffer alone

In the case of “T2Q A34F variant of GB1 (domain or fragment)”, the Kd (T2Q A34F variant of GB1 [1]) is reported as 42 µM, the Kd (T2Q A34F variant of GB1 [2]) is reported as 12 µM and the Kd (T2Q A34F variant of GB1 [3]) is reported as 8 µM. For the same substance, the Kd (T2Q A34F variant of GB1 [4]) was 26 µM, the Kd (T2Q A34F variant of GB1 [5]) was 57 µM and the stoichiometry N (T2Q A34F variant of GB1 [5]) was 2.
